This note sets out measurements from US12618050B2, “Engineered polypeptides that exhibit increased catalytic efficiency for unnatural cofactors and uses thereof” (The Regents of the University of California, priority 2018, dated 2026).

The nature of series [1]: GDH enzymatic assay with NADP^+ as cofactor. Format: biochemical. The note with it: cofactor NADP^+. Here is the method: (§1) GDH enzymatic assays. The GDH activity was measured as described in Hilt et al. (Biochimica et biophysica acta 1076(2):298-304 (1991)). The reactions were started by adding the purified protein to the assay mixture containing 35 mM Tris-HCl buffer (pH 8.0), 3 mM NAD^+, NADP^+ or NMN^+ and 140 mM glucose. The absorbance variation at 340 nm was detected by a spectrophotometer at 25° C.

Series [2] in a line: Protein expression levels of GDH variants. On the set-up: species or system Escherichia coli. The note with it: expressed in E. coli. Here is the method: Proteins were purified as 6×His tag fusion at the N-terminus. E. coli BL21 (DE3) with plasmids were inoculated into LB medium with 200 mg L^−1 ampicillin. Cells were induced with 0.5 mM IPTG and expressed for 24 hours at 30° C. with shaking at 250 rpm. BM3 cytochrome P450 was extracted with the EMD Millipore™ BugBuste Plus Lysonase Kit and purified using the HisPur™ Ni-NTA Superflow Purification System according to the manufacturer's instructions. Other proteins were purified using His-Spin Protein Miniprep kit (Zymo Research Corporation, CA). The purified proteins were quantified by Bradford assay.

A short description of series [3]: GDH enzymatic assay with NAD^+ as cofactor. Format: biochemical. The note with it: cofactor NAD^+. Here is the method: as §1
Series [4] can be described thus: XenA-GDH coupled cycling biotransformation of ketoisophorone to levodione. Format: biochemical. Here is the method: Coupled enzymatic biotransformation. All biotransformation reactions were performed in buffer A at 30° C. for 24 hours. Reaction buffer A, modified from that disclosed in Chaparro-Riggers et al., Advanced Synthesis & Catalysis 349(8-9):1521-1531 (2007)), contained 200 mM potassium phosphate buffer (pH 7.5), 1 M NaCl, 300 mM D-glucose, 6 mM NMN^+ (or NADP^+ as the positive control), and substrates. All assays were performed in triplicate, with no proteins or no cofactors added as negative controls. The protein loading for GDH variants was kept at 0.33 mg mL^−1 or 11.7 μM. The various enzymes for biotransformation reactions were added at the concentration of 0.75 mg mL^−1.
For XenA-GDH coupled cycling assays, the substrates ketoisophorone, citral, or trans-2-hexen-1-al were added at 33 mM, 10 mM, or 50 mM, respectively. For the OYE3-GDH coupled cycling assays, the substrate 4-phenyl-3-butyn-2-one was added at 5 mM. At various time points over 24 hours, 100 μL samples were taken and extracted with 100 μL ethyl acetate. Conversion was determined via GC-FID with octanol as an internal standard (see below). For NfsB-GDH coupled cycling assays, 2 mM nitrofurazone was used as the substrate. Nitrofurazone conversion was measured spectroscopically at 400 nm and quantification was performed using a standard curve. The initial levels of the above-mentioned substrates were mainly determined by their solubility in the assay buffer. For BM3-GDH coupled cycling assays, 50 μM cytochrome c (C2506 Sigma) was used as the substrate. The reduction of cytochrome c was measured spectroscopically at 550 nm. and the quantification was performed using extinction coefficient ε550 of 21.1 mM^−1 cm^−1.
Coupled cycling conditions: All biotransformation reactions were performed in buffer A at 30° C. for 24 hours. Reaction buffer A contained 200 mM potassium phosphate buffer (pH 7.5), 1 M NaCl, 300 mM D-glucose, 6 mM NMN^+. Substrate ketoisophorone was added at 5 g/L. At various time points over 24 hours, 100 μL samples were taken and extracted with 100 μL ethyl acetate. Conversion was determined via GC-FID with octanol as an internal standard (see below).

The nature of series [5]: GDH enzymatic assay with NMN^+ as cofactor. Format: biochemical. The method, then:
as §1

B1: I195R: Bs GDH, same sequence as SEQ ID NO:1 except I195R (SEQ ID NO:2) (protein)
chain: MYPDLKGKVVAITGAASGLGKAMAIRFGKEQAKVVINYYSNKQDPNEVKEEVIKAGGEAVVVQGDVTKEEDVKNIVQTAIKEFGTLDIMINNAGLENPVPSHEMPLKDWDKVIGTNLTGAFLGSREAIKYFVENDIKGNVINMSSVHEVIPWPLFVHYAASKGGIKLMTETLALEYAPKGIRVNNIGPGAINTPRNAEKFADPKQKADVESMIPMGYIGEPEEIAAVAAWLASKEASYVTGITLFADGGMTQYPSFQAGRG
modifications: I195R mutant GDH coding sequence
In general, Km refers to the concentration of substrate that gives half-maximal velocity. As for B1, the values for the Kcat in series [1], in series [3] and in series [5] (cofactor NMN^+) were 2.5 ± 0.21 s⁻¹, 7.3 ± 1.1 s⁻¹ and 1.1 ± 0.27 s⁻¹, respectively. Besides, the Km in series [1] is 16 ± 0.8 µM; in series [3] it was 53 ± 9.2 µM; in series [5] (cofactor NMN^+), 8900 ± 690 µM. Moreover, in series [2], the Expression level came to 108.83 μg protein/ml culture. Further, the “initial productivity of levodione” value in series [4] (NMN^+ as cycling cofactor, XenA in excess, GDH 11.7 μM) is ~0.51 µM/s. In addition, the “improvement of NMN^+-dependent productivity” value in series [4] (versus wild type Bs GDH) is on record as 10 fold. Moreover, the “improvement of specific activity towards NMN^+” value in series [5] (versus wild-type Bs GDH) amounted to 545 fold.
